The values below come from the supplement of paper PMC10567573.

± gives the standard deviation.

The data set in a line: protein stability index of a GFP-peptide fusion (GPS, HEK-293T) (PSI 1-6); higher = more stable.
The mark [1] stands for this setting: treatment: DMSO, c terminus: a fixed tail appended.
Where [2] appears, read: treatment: MLN4924 1 uM, 8 h, c terminus: a fixed tail appended.
[3] abbreviates: treatment: DMSO, c terminus: native.
The mark [4] stands for this setting: treatment: MLN4924 1 uM, 8 h, c terminus: native.
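Further: 24-mer peptide tiles fused after GFP, lentivirally expressed, FACS-sorted into six equal bins by GFP/DsRed ratio, decoded by Illumina sequencing, PSI is the read-weighted mean bin number.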

GFSPIIGRFCGQQNPPVIKSSGRF [NETO1]: the protein stability index by setting is: under setting [1], 2.42 ± 0.29; under setting [2], 2.52 ± 0.75. Taken in the same sequence, the figures for GGGSNNGKTPVCHQCHKVIRGRYL [PDLIM7] were 2.81 ± 0.52 and 3.07 ± 0.42.

Consider GGIKTVDMRDPTYRPLKQELQGLD [SPSB1], for which the protein stability index came to 4.18 ± 0.37 under setting [1] and 4.33 ± 0.27 under setting [2].

As for GGNDLCVWNRKLDLLCKTSHLSDT [WDR41], the protein stability index reads like this: under setting [1], 3.16 ± 0.39; under setting [2], 3.05 ± 0.18. Take GGTLAEFIQKRCNSLLEEETILHF [NEK8]: the protein stability index under setting [1] amounted to 1.97 ± 0.24 and the protein stability index under setting [2] worked out at 1.99 ± 0.43. Regarding GHEGSVSSCHFARDSSFLISGGFD [WDR88], the protein stability index runs as follows: under setting [1], 2.98 ± 0.33; under setting [2], 3.1 ± 0.13.

The sequence GHHLLKWIIKSNYQGLPVRCVKSI [SRPK2] yielded a protein stability index under setting [1] of 2.2 ± 0.56 and a protein stability index under setting [2] of 2.33 ± 0.34. For GHMDDGGYSMNFNMSSSRGPLPVK [RBMX], in that order: 4.05 ± 0.21 and 3.95 ± 0.24.

As to GHSTDAREMSKTFIIGELHPDDRP [CYB5A], the protein stability index reads like this: under setting [1], 4.38 ± 0.15; under setting [2], 4.66 ± 0.16.

GIQPGQEPPVTMIFMGYQNVEDEA [PALM]: the protein stability index by setting is: under setting [1], 3.94 ± 0.35; under setting [2], 4.02 ± 0.24. For GKSGLRVSCLGLGTWVTFGGQITD [KCNAB2], in that order: 2.2 ± 0.61 and 2.04 ± 0.64.

Regarding GKWQQQGDLQDTKENREEARFQDK [CHGB], the protein stability index under setting [1] was 5.44 ± 0.36 and the protein stability index under setting [2] was determined as 5.33 ± 0.16. Consider GLEAASVYSDHTNTNNLTFLMDLP [RNF180], for which the protein stability index was 3.13 ± 0.26 under setting [1] and 3.22 ± 0.3 under setting [2]. For the sequence GLLQYGSTVKNEFSLKTFKRKSEV [MATN2], the protein stability index runs as follows: under setting [1], 3.02 ± 0.25; under setting [2], 3.07 ± 0.35. GLPRSRDCRVDLGSEVYRMLREPA [PDLIM4] showed a protein stability index under setting [1] of 3.08 ± 0.15 and a protein stability index under setting [2] of 3.39 ± 0.2.

In the case of GLSAPARCLVRCLLRREPAERLTA [TRIB3], the protein stability index runs as follows: under setting [1], 2.33 ± 0.12; under setting [2], 2.16 ± 0.32.

Consider GLSDRAKEAKEFLVQLRNMVQQIQ [TRIM9], for which the protein stability index under setting [1] was 2.17 ± 0.56 and the protein stability index under setting [2] is 2.2 ± 0.23. Turning to GMFTFLSSVTAAVSGLLVGYELGI [SLC2A12], the protein stability index under setting [1] turned out to be 2.891 ± 0.011 and the protein stability index under setting [2] was found to be 2.75 ± 0.86. Taken in the same sequence, the figures for GMSLAKELIFSARVLDGKEAKAVG [AUH] were 3.45 ± 0.13 and 3.48 ± 0.17.

On to GNTIALFFRSLLPNYTMEGERPEE [TCF25], for which the protein stability index under setting [1] was determined as 2.17 ± 0.62 and the protein stability index under setting [2] was 2.72 ± 0.21.

Consider GPGFHAGTSALWRHLRSAHRRELE [ZBED3], for which the protein stability index is, setting by setting: under setting [1], 2.73 ± 0.34; under setting [2], 3.13 ± 0.53. Take GPGYWMCCHRSQKGFPGCKLGLHD [FBXO34]: the protein stability index reads like this: under setting [1], 2.21 ± 0.44; under setting [2], 2.11 ± 0.56. As to GPQPTMEGDVLDTLEALGYKGPLL [FAM98B], the protein stability index amounted to 4.18 ± 0.32 under setting [1] and 4.07 ± 0.38 under setting [2]. In the case of GPSRPAEKPPRPEAKSAQPADGWK [GCH1], the protein stability index runs as follows: under setting [1], 5.17 ± 0.082; under setting [2], 5.16 ± 0.18. On to GPSTPSPVAAQFTSEGTTLSGVDL [FCHO1], for which the protein stability index worked out at 5.2 ± 0.4 under setting [1] and 4.96 ± 0.53 under setting [2]. For GQCQVLVQRSPWLMMRMGILGRGL [TCAP], in that order: 2.2 ± 0.14 and 2.14 ± 0.16. For the sequence GQRGNTESKTDGDDTETVPSEQSH [TCF25], the protein stability index stood at 5.58 ± 0.21 under setting [1] and 5.54 ± 0.23 under setting [2].

GQRQPPPSEPTQGPEIVPRGAGP [DNAJC4]: the protein stability index stood at 5.28 ± 0.51 under setting [3] and 5.49 ± 0.2 under setting [4].

With GRCATRAFHRKSHSLDLNISEKLT [RNF180], the protein stability index by setting is: under setting [1], 3.73 ± 0.43; under setting [2], 3.63 ± 0.42. Turning to GRGVKKRLVLCMELANGKPQTRSG [ADAMTSL2], the protein stability index under setting [1] was 2.19 ± 0.56.

For the sequence GRLEGLIQPDDLINQLTFIMDANQ [FAF2], the protein stability index reads like this: under setting [1], 2.8 ± 0.2; under setting [2], 2.77 ± 0.5. The sequence GRQPCGRFLRAYREGALRAALQRS [TRADD] had a protein stability index under setting [1] of 2.56 ± 0.15 and a protein stability index under setting [2] of 2.45 ± 0.4. In the case of GRRVNAKMPVYSGSRPACQLQVPT [ELOA2], the protein stability index under setting [1] was found to be 3.11 ± 0.32 and the protein stability index under setting [2] turned out to be 3.49 ± 0.44.

GSIPGFLISSGMSSHKQGHTSSEY [TAF7L] came in with a protein stability index under setting [1] of 3.25 ± 0.23 and a protein stability index under setting [2] of 3.29 ± 0.29. For GSKFRYSGRTQAQTRRASALIDRP [EPB41L3], the protein stability index worked out at 3.35 ± 0.41 under setting [1] and 3.44 ± 0.27 under setting [2]. Consider GSQRARVVNTDHGSPEQLQIPVTD [SDE2], for which the protein stability index under setting [1] was found to be 5.06 ± 0.22 and the protein stability index under setting [2] was found to be 4.98 ± 0.34. Take GSRMMAVAALVVNFSQPVAGRPSL [NLN]: the protein stability index stood at 3.1 ± 0.68 under setting [1] and 2.56 ± 1.2 under setting [2]. Turning to GTDIVRGCDPLVKPVGRQACDLQP [ADAMTSL2], the protein stability index is, setting by setting: under setting [1], 4.08 ± 0.22; under setting [2], 4.22 ± 0.059. For GTEFMQDPDEEHLKKSSQVPRTEA [PDLIM7], in that order: 5.47 ± 0.12 and 5.23 ± 0.26. Taken in the same sequence, the figures for GTHPEDHQGHSDQHHHHHHHHHGR [RHOBTB2] were 4.9 ± 0.16 and 5.01 ± 0.26.

On to GTIHALIFAWNKWIDIKQFVWYTP [STEAP1], for which the protein stability index under setting [1] was 3.28 ± 0.26 and the protein stability index under setting [2] came out at 2.18 ± 0.11. Turning to GTVPGQAPRLAVAVPAVTSADSQF [LYSMD4], the protein stability index is, setting by setting: under setting [1], 4.46 ± 0.28; under setting [2], 4.55 ± 0.17.

GVGKSAMTMQFISHRFPEDHDPTI [RIT1]: the protein stability index turned out to be 3.4 ± 0.24 under setting [1] and 3.46 ± 0.37 under setting [2]. As for GVITTTPTPPGQYFYPRGGGSGGG [JUNB], the protein stability index is, setting by setting: under setting [1], 4.14 ± 0.16; under setting [2], 4.26 ± 0.095. Consider GVKLEGKVPMHKLFLEMLEAMMD [ESRRA], for which the protein stability index reads like this: under setting [3], 2.58 ± 0.74; under setting [4], 2.66 ± 0.69. Take GVLILFLTFFAFLHCWLNAFAEML [SOAT1]: the protein stability index reads like this: under setting [1], 2.88 ± 0.4; under setting [2], 2.85 ± 0.36. With GWLQHDFGHLSVFSTSKWNHLLHH [FADS1], the protein stability index amounted to 2.04 ± 0.44 under setting [1] and 2.19 ± 0.29 under setting [2].

As for GWLSVSDDLTSVTNHGYRVQVENP [TRIM35], the protein stability index runs as follows: under setting [1], 3.12 ± 0.17; under setting [2], 3.24 ± 0.18. Consider GYAVNVFDIQQGFDNPQVRFFLGD [NSDHL], for which the protein stability index runs as follows: under setting [1], 2.36 ± 0.38; under setting [2], 2.57 ± 1.4. In the case of GYELGIISGALLQIKTLLALSCHE [SLC2A12], the protein stability index reads like this: under setting [1], 3.61 ± 0.26; under setting [2], 3.71 ± 0.1. Sequence GYGGGLGAGFGGGLGAGFGGGFAG [KRT16] had a protein stability index under setting [1] of 2.65 ± 0.38 and a protein stability index under setting [2] of 2.47 ± 0.28. In the case of GYQMLGNVVTIGLAFFPFLHRLFR [PHTF1], the protein stability index amounted to 3.71 ± 0.23 under setting [1] and 3.68 ± 0.34 under setting [2]. Taken in the same sequence, the figures for HAASDPSSSSGRLSEPDPSHTLEE [SMOC2] were 5.31 ± 0.29 and 5.43 ± 0.15.
